Measured values: paper PMC3098231

B1: Motif Ia rank 3 hairpin (structured_DNA)
DNA: ACACGCGCATGCGGTTGGTGTGGTTTGGCATGCGCCACA
modifications: 3'-thiol for SPR
B2: Motif Ia rank 25 hairpin (structured_DNA)
DNA: ACACGCGCATGCGGTTGGTGCGGTTGGGCATGCGCCACA
modifications: 3'-thiol for SPR
B3: Motif Ia rank 9 hairpin (structured_DNA)
DNA: ACACGCGCATGCGGTTGGTTTGGTTGGGCATGCGCCACA
modifications: 3'-thiol for SPR

Target: human alpha-thrombin (Homo sapiens, UniProt P00734;P00734 328-363;364-622)
Test: SPR imaging (k-1/k1); 50 nM thrombin; 20 mM Tris-HCl pH 7.4, 140 mM NaCl, 5 mM KCl, 1 mM CaCl2, 1 mM MgCl2; SPR at 25 C; EMSA in the same selection buffer, 14% native PAGE in 1X Tris-glycine at 4 C

Row | Binder | Kd
1 | B1 | 170 nM
2 | B2 | 2200 nM
3 | B3 | 650 nM
